T1: HY5 (LONG HYPOCOTYL 5) (Solanum lycopersicum, UniProt Q9SM50 1-158)
T1 sequence: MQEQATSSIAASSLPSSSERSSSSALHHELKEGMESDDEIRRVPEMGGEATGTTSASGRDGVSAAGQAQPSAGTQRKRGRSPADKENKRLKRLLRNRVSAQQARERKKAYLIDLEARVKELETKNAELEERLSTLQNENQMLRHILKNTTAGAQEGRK

B1: PORC-wt probe (dsDNA)
DNA 1: CAAAATGCAACACGTGATGTATGAAT
DNA 2: ATTCATACATCACGTGTTGCATTTTG
B2: PSY2-wt probe (dsDNA)
DNA 1: CTGTGATTTACACGTGTCCTCTTTAT
DNA 2: ATAAAGAGGACACGTGTAAATCACAG

Biological target: T1, HY5 (LONG HYPOCOTYL 5)
Assay: EMSA; no GSNO; LightShift Chemiluminescent EMSA Kit, 20 min at room temperature, 6% native polyacrylamide gel; buffer, salt and pH not stated
Settings: protein: recombinant; tags: His (pET-32a fusion); chain copies: 2; label: biotin 3' end; blunt

Binder	binding result
B1	binds
B2	binds
